# Results from patent US20230287126A1 (BIO THERA SOLUTIONS, published 2023).
# Where two headings read alike, the source gives them in different places.
# Experiments:
# [1] = molecular target: T1, human PD-L1 overexpressed on CHO cells (human, UniProt Q9NZQ7 19-290); assay: cell-based or functional assay
# [2] = molecular target: T1, human PD-L1 overexpressed on CHO cells; assay: cell-based or functional assay; remark: listed apart in the source
# [3] = molecular target: T2, PD-L1-His-Biotin (human, UniProt Q9NZQ7 19-238, biotin-labelled (sites not given)); assay: flow cytometry of yeast-displayed scFv with 1 nM PD-L1-His-Biotin, Streptavidin-PE
# T2 construct: also called PD-L1-His-Biotin antigen protein
# T2 sequence (Q9NZQ7 other isoform, or with tags, fused parts or gaps): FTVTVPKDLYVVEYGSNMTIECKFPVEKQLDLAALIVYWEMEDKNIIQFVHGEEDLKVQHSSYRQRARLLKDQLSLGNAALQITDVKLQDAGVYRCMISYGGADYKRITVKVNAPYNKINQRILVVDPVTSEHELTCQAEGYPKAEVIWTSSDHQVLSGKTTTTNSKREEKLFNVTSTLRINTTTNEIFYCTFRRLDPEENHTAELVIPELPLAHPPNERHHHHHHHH
# Description: (§1) The yeasts described above were incubated with 1 nM of PD-L1-His-Biotin antigen protein at room temperature for 1 h, washed 3 times with PBS at pH 7.4, then incubated with Streptavidin-PE fluorescent secondary antibody at room temperature for 30 min, and washed 3 times with PBS at pH 7.4. The fresh PBS was added, and loaded on the machine for assay.
# [4] = molecular target: T2, PD-L1-His-Biotin; assay: flow cytometry of yeast-displayed scFv with 1 nM PD-L1-His-Biotin, Streptavidin-PE; positive rate %
# Description: as §1
# T1 sequence (Q9NZQ7 19-290): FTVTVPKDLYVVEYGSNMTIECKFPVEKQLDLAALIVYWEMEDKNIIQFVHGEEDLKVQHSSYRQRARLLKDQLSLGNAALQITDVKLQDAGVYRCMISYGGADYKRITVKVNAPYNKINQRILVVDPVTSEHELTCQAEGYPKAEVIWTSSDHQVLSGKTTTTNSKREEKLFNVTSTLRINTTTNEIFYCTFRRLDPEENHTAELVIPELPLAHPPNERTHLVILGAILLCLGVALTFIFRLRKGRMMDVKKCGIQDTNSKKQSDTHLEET
"EC50 (luciferase reporter luminescence, PD-1/PD-L1 Blockade Bioassay, CHO-PD-L1 + Jurkat-PD1 cells) [1] [mg/L]","EC50 (luciferase reporter luminescence, PD-1/PD-L1 Blockade Bioassay, CHO-PD-L1 + Jurkat-PD1 cells) [2] [mg/L]",Binder,also measured
2.74,,"L1-R2-4 (antibody, V domains shown) VH: not shown VL: EIVLTQSPSSLSASVGDRVTITCLASQTIGTWLAWYQQKPGKSPQLLIYAASTLQSGVPSRFSGSGSGTDFTLTISSLQPEDVATYYCQQYYSTPRTFGQGTKVEIKR",
,0.382,"L1-R2-4-71 (antibody, human IgG1, kappa, V domains shown) VH: EVQLVESGGGLVQPGGSLRLSCAASGFTFSDSWIHWVRQAPGKGLEWVGWISPYGGSTYYADSYRSRFTISADTSKNTAYLQMNSLRAEDTAVYYCARRHWPGGFDYWGQGTLVTVSS VL: EIVLTQSPSSLSASVGDRVTITCLASQTIGTWLAWYQQKPGKSPQLLIYAASTLQSGVPSRFSGSGSGTDFTLTISSLQPEDVATYYCQQYYSTPRTFGQGTKVEIKR",
,0.224,"L1-R2-4-46 (antibody, human IgG1, kappa, V domains shown) VH: EVQLVESGGGLVQPGGSLRLSCAASGFTFSDSWIHWVRQAPGKGLEWVGWISPYGGSTYYADSLGDRFTISADTSKNTAYLQMNSLRAEDTAVYYCARRHWPGGFDYWGQGTLVTVSS VL: EIVLTQSPSSLSASVGDRVTITCLASQTIGTWLAWYQQKPGKSPQLLIYAASTLQSGVPSRFSGSGSGTDFTLTISSLQPEDVATYYCQQYYSTPRTFGQGTKVEIKR",
,0.148,"L1-R2-4-36 (antibody, human IgG1, kappa, V domains shown) VH: EVQLVESGGGLVQPGGSLRLSCAASGFTFSDSWIHWVRQAPGKGLEWVGWISPYGGSTYYADDFRHRFTISADTSKNTAYLQMNSLRAEDTAVYYCARRHWPGGFDYWGQGTLVTVSS VL: EIVLTQSPSSLSASVGDRVTITCLASQTIGTWLAWYQQKPGKSPQLLIYAASTLQSGVPSRFSGSGSGTDFTLTISSLQPEDVATYYCQQYYSTPRTFGQGTKVEIKR",
,0.389,"L1-R2-4-47 (antibody, human IgG1, kappa, V domains shown) VH: EVQLVESGGGLVQPGGSLRLSCAASGFTFSDSWIHWVRQAPGKGLEWVGWISPYGGSTYYADHLSQRFTISADTSKNTAYLQMNSLRAEDTAVYYCARRHWPGGFDYWGQGTLVTVSS VL: EIVLTQSPSSLSASVGDRVTITCLASQTIGTWLAWYQQKPGKSPQLLIYAASTLQSGVPSRFSGSGSGTDFTLTISSLQPEDVATYYCQQYYSTPRTFGQGTKVEIKR",
3.78,,"L1-R2-89 (antibody, V domains shown) VH: not shown VL: DIQMTQSPSSLSASVGDRVTITCLASQTIGTWLAWYQQKPGKSPQLLIYAASSLQSGVPSRFSGSGSGTDFTLTISSLQPEDVATYYCQQYYSTPYTFGQGTKVDIKR",
,0.401,"L1-R2-4-55 (antibody, human IgG1, kappa, V domains shown) VH: EVQLVESGGGLVQPGGSLRLSCAASGFTFSDSWIHWVRQAPGKGLEWVGWISPYGGSTYYADGMRSRFTISADTSKNTAYLQMNSLRAEDTAVYYCARRHWPGGFDYWGQGTLVTVSS VL: EIVLTQSPSSLSASVGDRVTITCLASQTIGTWLAWYQQKPGKSPQLLIYAASTLQSGVPSRFSGSGSGTDFTLTISSLQPEDVATYYCQQYYSTPRTFGQGTKVEIKR",
3.57,,"L1-R2-78 (antibody, V domains shown) VH: not shown VL: DIQMTQSPSSFSASTGDRVTITCRASQGISSYLAWYQQKPGKAPKLLIYAASRLQSGVPSRFSGSGSGTDFTLTISSLQAEDVAVYYCQQYYSTPYTFGQGTKVDIKR",
5.09,,"L1-R2-18 (antibody, V domains shown) VH: not shown VL: EIVLTQSPSSVSASVGDRITITCRASQGIGSWLAWYQQKPGKAPSLLIYAASSLQSGVPSRFSGSGSGTDFTLTISSLQTEDVAVYYCQQYFSTPYTFGQGTKVDIKR",
5.22,,"L1-R2-85 (antibody, V domains shown) VH: not shown VL: DIQMTQSPSSLSASVGDRVTIPCRASQGIGKFLAWYQQKPGKAPSLLIYAASSLQSGVPSRFSGSGSGTDFTLTISSLQTEDVAVYYCQQYFSTPYTFGQGTKVDIKR",
,,"CP11-71 scFv (scFv, display fusion partner not described; VH at N terminus) scFv: EVQLVESGGGLVQPGGSLRLSCAASGFTFSDSWIHWVRQAPGKGLEWVGWISPYGGSTYYADSYRSRFTISADTSKNTAYLQMNSLRAEDTAVYYCARRHWPGGFDYWGQGTLVTVSSGGGGSGGGGSGGGGSEIVLTQSPSSLSASVGDRVTITCLASQTIGTWLAWYQQKPGKSPQLLIYAASTLQSGVPSRFSGSGSGTDFTLTISSLQPEDVATYYCQQYYSTPRTFGQGTKVEIK",binding result [3]: binds
,,"CP21-59 (scFv, also called CP21-59 scFv) scFv (VH - linker - VL, VH at the N terminus): EVQLVESGGGLVQPGGSLRLSCAASSFSLKDSWIHWVRQAPGKGLEWVGWISPYGGSTYYADSVKGRFTISADTSKNTAYLQMNSLRAEDTAVYYCARRHWPGGFDYWGQGTLVTVSSGGGGSGGGGSGGGGSEIVLTQSPSSLSASVGDRVTITCLASQTIGTWLAWYQQKPGKSPQLLIYAASTLQSGVPSRFSGSGSGTDFTLTISSLQPEDVATYYCQQYYSTPRTFGQGTKVEIK",binding result [4]: binds
,,"CP22-40 (scFv, also called CP22-40 scFv) scFv (VH - linker - VL, VH at the N terminus): EVQLVESGGGLVQPGGSLRLSCAASGFTFSDSWIHWVRQAPGKGLEWVGWISPYGGSTYYADSVKGRFTISADTSKNTAYLQMNSLRAEDTAVYYCARRHWPGGLLPWGQGTLVTVSSGGGGSGGGGSGGGGSEIVLTQSPSSLSASVGDRVTITCLASQTIGTWLAWYQQKPGKSPQLLIYAASTLQSGVPSRFSGSGSGTDFTLTISSLQPEDVATYYCQQYYSTPRTFGQGTKVEIK",binding result [4]: binds
,,"CP22-44 (scFv, also called CP22-44 scFv) scFv (VH - linker - VL, VH at the N terminus): EVQLVESGGGLVQPGGSLRLSCAASGLRPADSWIHWVRQAPGKGLEWVGWISPYGGSTYYADSVKGRFTISADTSKNTAYLQMNSLRAEDTAVYYCARRHWPGGFDYWGQGTLVTVSSGGGGSGGGGSGGGGSEIVLTQSPSSLSASVGDRVTITCLASQTIGTWLAWYQQKPGKSPQLLIYAASTLQSGVPSRFSGSGSGTDFTLTISSLQPEDVATYYCQQYYSTPRTFGQGTKVEIK",binding result [4]: binds
,,"CP22-45 (scFv, also called CP22-45 scFv) scFv (VH - linker - VL, VH at the N terminus): EVQLVESGGGLVQPGGSLRLSCAASNSHLRDSWIHWVRQAPGKGLEWVGWISPYGGSTYYADSVKGRFTISADTSKNTAYLQMNSLRAEDTAVYYCARRHWPGGFDYWGQGTLVTVSSGGGGSGGGGSGGGGSEIVLTQSPSSLSASVGDRVTITCLASQTIGTWLAWYQQKPGKSPQLLIYAASTLQSGVPSRFSGSGSGTDFTLTISSLQPEDVATYYCQQYYSTPRTFGQGTKVEIK",binding result [4]: binds
3.92,,"L1-R2-6 (antibody, V domains shown) VH: not shown VL: EIVLTQSPSSVSASVGDKLTMTCQASQDIGKHLNWYQQKPGKPPKLLIYGASNLKTGVPSRFSGTGSGTDFTLTISSLQPEDFATYYCQQSYTTPYTFGQGTRLEIKR",
